Broadly, the Kd is the equilibrium constant for the complex coming apart.

This test has as its target T1, recombinant soluble CD46 (CCP1-4) (human, UniProt P15529 35-285).
T1 sequence (looked up): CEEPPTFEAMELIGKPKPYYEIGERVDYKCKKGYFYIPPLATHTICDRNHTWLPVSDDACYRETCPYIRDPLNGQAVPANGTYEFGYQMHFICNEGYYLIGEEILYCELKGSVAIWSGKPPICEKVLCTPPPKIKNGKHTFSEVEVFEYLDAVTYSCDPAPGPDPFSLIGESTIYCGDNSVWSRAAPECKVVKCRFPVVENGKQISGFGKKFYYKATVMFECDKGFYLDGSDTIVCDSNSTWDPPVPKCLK
Kind of test: SPR. (SPR reads the build-up and loss of mass on a sensor chip optically.)

B1: J-1_(DSL-EGF3), recombinant Jagged1 construct of the DSL and first three EGF-like domains (domain or fragment)
chain: not shown
modifications: c-terminally biotinylated
Consider B1, for which the Kd was about 8 µM.

Source of the values: publication PMC3505834 (Nature immunology, 2012).
